Assay results as given in the supplement of paper PMC9112550, “Optimization of the antimicrobial peptide Bac7 by deep mutational scanning” (BMC Biology, 2022).

Tested on: Escherichia coli TOP10
Experiment: shrunken log2 fold change of peptide-encoding DNA abundance (4.5 h post-induction vs induction); higher = less antimicrobial activity (less host growth inhibition)
Settings: time post-induction: 4.5 h; library: site-saturation at positions 5, 18, 19, 20
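Further: peptides expressed intracellularly from a pBAD plasmid library in pooled LB shake-flask culture, induced with 0.3% L-arabinose, DNA abundance read by NGS, three biological replicates, DESeq2 with apeglm shrinkage.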

Sequence | shrunken log2 fold change
RRIRWRPPRLPRPRPRPKPDPRP | 0.115
RRIRQRPPRLPRPRPRPAQCPRP | -0.017
RRIRKRPPRLPRPRPRPTWQPRP | 0.58
RRIRERPPRLPRPRPRPMYDPRP | -0.266
RRIRPRPPRLPRPRPRPFQQPRP | -0.000989
RRIRFRPPRLPRPRPRPISEPRP | -0.0674
RRIRSRPPRLPRPRPRPGTTPRP | 0.132
RRIRARPPRLPRPRPRPELTPRP | 1.38
RRIRGRPPRLPRPRPRPHREPRP | 0.121
RRIRRRPPRLPRPRPRPWPWPRP | 0.0938
RRIRWRPPRLPRPRPRPYHNPRP | -0.296
RRIRARPPRLPRPRPRPFGRPRP | 0.547
RRIRARPPRLPRPRPRPGTEPRP | 0.376
RRIRKRPPRLPRPRPRPFAKPRP | 0.0238
RRIRFRPPRLPRPRPRPQAEPRP | -0.263
RRIRERPPRLPRPRPRPWRHPRP | -0.0998
RRIRIRPPRLPRPRPRPGSPPRP | -0.19
RRIRQRPPRLPRPRPRPWNQPRP | -0.0236
RRIRNRPPRLPRPRPRPPFRPRP | 0.153
RRIRMRPPRLPRPRPRPVLFPRP | 0.289
RRIRHRPPRLPRPRPRPVKNPRP | 0.0467
RRIRLRPPRLPRPRPRPFPDPRP | -0.0465
RRIRDRPPRLPRPRPRPFITPRP | -0.118
RRIRGRPPRLPRPRPRPEQIPRP | 0.438
RRIRGRPPRLPRPRPRPWWQPRP | 0.644

Sequence | shrunken log2 fold change
RRIRNRPPRLPRPRPRPLPHPRP | -0.387
RRIRPRPPRLPRPRPRPVFMPRP | -0.185
RRIRIRPPRLPRPRPRPVLWPRP | 0.199
RRIRVRPPRLPRPRPRPNEAPRP | -0.0128
RRIRCRPPRLPRPRPRPLIYPRP | -0.764
RRIRLRPPRLPRPRPRPPWLPRP | 0.439
RRIRFRPPRLPRPRPRPNSIPRP | -0.216
RRIRSRPPRLPRPRPRPYMKPRP | -0.421
RRIRGRPPRLPRPRPRPFQWPRP | -0.0859
RRIRWRPPRLPRPRPRPAMEPRP | 0.348
RRIRPRPPRLPRPRPRPYWMPRP | -1.06
RRIRGRPPRLPRPRPRPPGLPRP | 0.786
RRIRGRPPRLPRPRPRPCFIPRP | 0.0559
RRIRHRPPRLPRPRPRPGHGPRP | 0.0264
RRIRHRPPRLPRPRPRPQMYPRP | -0.0219
RRIRFRPPRLPRPRPRPADSPRP | -0.187
RRIRCRPPRLPRPRPRPNDRPRP | -0.299
RRIRKRPPRLPRPRPRPASVPRP | 0.291
RRIRVRPPRLPRPRPRPNRIPRP | -0.0663
RRIRWRPPRLPRPRPRPANCPRP | 0.0179
RRIRSRPPRLPRPRPRPPESPRP | 0.877
RRIRHRPPRLPRPRPRPMYPPRP | -0.304
RRIRQRPPRLPRPRPRPIVHPRP | -0.265
RRIRLRPPRLPRPRPRPVQFPRP | -0.38
RRIRKRPPRLPRPRPRPAERPRP | 0.123

Sequence | shrunken log2 fold change
RRIRARPPRLPRPRPRPWMDPRP | 0.14
RRIRLRPPRLPRPRPRPHEAPRP | 0.107
RRIRTRPPRLPRPRPRPAADPRP | 0.453
RRIRCRPPRLPRPRPRPNQFPRP | -0.23
RRIRARPPRLPRPRPRPNGDPRP | 0.147
RRIRIRPPRLPRPRPRPAYMPRP | -0.688
RRIRNRPPRLPRPRPRPRAWPRP | -0.054
RRIRNRPPRLPRPRPRPMGFPRP | -0.0516
RRIRNRPPRLPRPRPRPQIWPRP | 0.0573
RRIRDRPPRLPRPRPRPKDCPRP | 0.173
RRIRCRPPRLPRPRPRPACVPRP | 0.211
RRIRMRPPRLPRPRPRPVTKPRP | 0.253
RRIRLRPPRLPRPRPRPCIMPRP | -0.0711
RRIRWRPPRLPRPRPRPCDIPRP | -0.143
RRIRVRPPRLPRPRPRPERIPRP | -0.00978
RRIRSRPPRLPRPRPRPQGTPRP | 0.0846
RRIRARPPRLPRPRPRPACHPRP | 0.371
RRIRSRPPRLPRPRPRPNKPPRP | -0.23
RRIRGRPPRLPRPRPRPRHGPRP | 0.264
RRIRKRPPRLPRPRPRPGCFPRP | 0.421
RRIRNRPPRLPRPRPRPYSRPRP | -0.00947
RRIRRRPPRLPRPRPRPYCGPRP | -0.379
RRIRKRPPRLPRPRPRPIVNPRP | 0.219
RRIRGRPPRLPRPRPRPVTDPRP | 0.394
RRIRPRPPRLPRPRPRPGEHPRP | -0.133
